Target: T1, recombinant mouse periostin (mouse, UniProt Q62009-2 24-811, limits assumed)
T1 construct: also called MoPOSTN
T1 sequence (looked up): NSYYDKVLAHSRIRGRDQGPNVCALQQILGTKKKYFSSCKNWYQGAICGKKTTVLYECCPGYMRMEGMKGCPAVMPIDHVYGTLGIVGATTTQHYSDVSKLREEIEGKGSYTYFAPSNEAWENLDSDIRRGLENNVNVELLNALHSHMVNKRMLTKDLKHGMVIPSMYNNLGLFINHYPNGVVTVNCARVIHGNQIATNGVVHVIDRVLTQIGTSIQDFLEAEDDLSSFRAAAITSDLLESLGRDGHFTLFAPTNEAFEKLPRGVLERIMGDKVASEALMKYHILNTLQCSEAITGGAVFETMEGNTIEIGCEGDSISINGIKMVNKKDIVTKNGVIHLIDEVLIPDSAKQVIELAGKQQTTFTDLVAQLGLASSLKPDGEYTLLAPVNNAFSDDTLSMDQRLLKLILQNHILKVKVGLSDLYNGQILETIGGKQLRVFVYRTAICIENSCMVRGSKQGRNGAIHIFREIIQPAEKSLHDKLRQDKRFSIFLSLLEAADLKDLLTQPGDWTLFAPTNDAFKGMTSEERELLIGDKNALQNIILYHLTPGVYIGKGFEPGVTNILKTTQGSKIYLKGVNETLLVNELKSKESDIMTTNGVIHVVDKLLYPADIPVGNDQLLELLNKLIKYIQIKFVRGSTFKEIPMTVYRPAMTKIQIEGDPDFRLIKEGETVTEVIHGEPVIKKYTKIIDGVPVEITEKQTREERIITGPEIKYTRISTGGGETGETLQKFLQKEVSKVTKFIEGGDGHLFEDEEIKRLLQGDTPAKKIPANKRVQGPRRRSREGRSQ
Test: BLI (Octet Red); Table 6 ties the low end of the range to mouse periostin
Description: NB0828's binding affinity was determined across human, mouse, rat, and cyno species. NB0828 affinities were determined using the octet red system. Briefly, anti-human Fc (AHC) biosensors were used to capture NB0828, followed by association of titrating amounts of either recombinant human, mouse, rat, or cyno periostin (100 nM→0 nM; 1:2 dilutions). Recombinant human, mouse, and rat periostin was purchased commercially from R&D systems, whereas cyno periostin was made internally.

Kd: 0.1 nM
B1: NB0828 (antibody, V domains shown)
VH: QVQLVQSGAEVKKPGASVKVSCKASGYTFTSYGISWVRQAPGQGLEWMGWISAYNGNTNYAQKLQGRVTMTTDTSTSTAYMELRSLRSDDTAVYYCARDMLVVPFDYWGQGTLVTVSS
VL: QSVLTQSSSASGTPGQTVTVSCSGSSSDIGSNRVNWYQQLPGTAPKLLIYSNDQRPSGVPDRFSGSKSGTSASLAISGLQSADEADYYCAAWDDSLSTYVFGSGTKVTVL

Reference: patent US20220010003A1 (Boehringer Ingelheim, published 2022)
